The results in this text go back to patent US7105484 (Genentech, dated 2006).

A word on the Kd: it is the constant that tells how readily two partners part at equilibrium. Lower therefore signals a tighter complex.

This assay addresses T1, GDNFRα (full length, GPI-linked, expressed on cells) (rat, UniProt Q62997 25-430).
T1 construct: also called GDNF receptor α; recombinant GDNFRα
T1 sequence: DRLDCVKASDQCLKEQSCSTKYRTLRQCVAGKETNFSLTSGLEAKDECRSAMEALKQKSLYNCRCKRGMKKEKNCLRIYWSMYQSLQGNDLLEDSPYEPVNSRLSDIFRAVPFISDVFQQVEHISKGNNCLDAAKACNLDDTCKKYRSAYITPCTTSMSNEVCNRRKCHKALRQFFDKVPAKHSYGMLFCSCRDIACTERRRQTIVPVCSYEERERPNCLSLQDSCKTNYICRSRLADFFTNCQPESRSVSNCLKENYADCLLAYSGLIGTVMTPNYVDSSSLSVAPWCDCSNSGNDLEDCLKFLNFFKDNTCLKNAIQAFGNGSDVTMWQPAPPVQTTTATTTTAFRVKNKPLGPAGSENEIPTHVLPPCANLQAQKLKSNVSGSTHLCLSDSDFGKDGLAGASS
Nature of the assay: competition binding of 50 pM 125I GDNF against cold GDNF on CHO cells stably expressing GDNFRα; Scatchard analysis, IGOR program. The text has this:
Competition binding experiments further indicate that GDNF binds specifically and reversibly to GDNFRα expressing cells. […] The IGOR program was used to determine K_d.

B1: GDNF (Glial-cell Derived Neurotrophic Factor) (ligand)
chain: SPDKQMAVLPRRERNRQAAAANPENSRGKGRRGQRGKNRGCVLTAIHLNVTDLGLGYETKEELIFRYCSGSCDAAETTYDKILKNLSRNRRLVSDKVGQACCRPIAFDDDLSFLDDNLVYHILRKHSAKRCGCI
modifications: The tracer form is 125I-iodinated, and the iodinated residues are not stated. Per our card (not shown to me), active GDNF is a disulfide-bonded homodimer; one protomer is given.
In turn, B1 registered a Kd of around 0.063 nM.
